From article doi:10.1101/2024.03.12.584494 come the findings set out here.

Some targets named below: mGFP-PICK1 5K-E (mouse) (UniProt Q62083); mCherry-KIBRA WT (mouse) (UniProt Q5SXA9); mCherry-PICK1 WT (mouse) (UniProt Q62083); mGFP-KIBRA ΔCCL (mouse) (UniProt Q5SXA9); mGFP-KIBRA ΔC2 (mouse) (UniProt Q5SXA9); mGFP-KIBRA ΔCt (mouse) (UniProt Q5SXA9); mGFP-KIBRA ΔαBR (mouse) (UniProt Q5SXA9).
Experiment in all cases: co-IP

Sequence of mCherry-PICK1 WT (mouse) (Q62083 whole entry): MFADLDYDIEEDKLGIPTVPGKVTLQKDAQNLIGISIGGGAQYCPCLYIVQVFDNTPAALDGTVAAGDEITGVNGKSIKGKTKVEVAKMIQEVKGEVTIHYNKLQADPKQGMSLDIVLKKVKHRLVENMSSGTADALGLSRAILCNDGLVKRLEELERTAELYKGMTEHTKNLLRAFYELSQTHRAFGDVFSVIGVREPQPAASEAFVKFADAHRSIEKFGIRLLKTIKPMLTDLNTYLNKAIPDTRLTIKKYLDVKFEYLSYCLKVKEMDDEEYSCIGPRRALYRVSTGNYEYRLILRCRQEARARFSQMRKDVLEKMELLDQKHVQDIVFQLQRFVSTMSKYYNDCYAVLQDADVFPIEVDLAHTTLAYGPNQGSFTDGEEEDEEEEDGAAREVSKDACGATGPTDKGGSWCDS
Sequence of mGFP-PICK1 5K-E (mouse) (Q62083 whole entry): as above
Sequence of mCherry-KIBRA WT (mouse) (Q5SXA9 whole entry): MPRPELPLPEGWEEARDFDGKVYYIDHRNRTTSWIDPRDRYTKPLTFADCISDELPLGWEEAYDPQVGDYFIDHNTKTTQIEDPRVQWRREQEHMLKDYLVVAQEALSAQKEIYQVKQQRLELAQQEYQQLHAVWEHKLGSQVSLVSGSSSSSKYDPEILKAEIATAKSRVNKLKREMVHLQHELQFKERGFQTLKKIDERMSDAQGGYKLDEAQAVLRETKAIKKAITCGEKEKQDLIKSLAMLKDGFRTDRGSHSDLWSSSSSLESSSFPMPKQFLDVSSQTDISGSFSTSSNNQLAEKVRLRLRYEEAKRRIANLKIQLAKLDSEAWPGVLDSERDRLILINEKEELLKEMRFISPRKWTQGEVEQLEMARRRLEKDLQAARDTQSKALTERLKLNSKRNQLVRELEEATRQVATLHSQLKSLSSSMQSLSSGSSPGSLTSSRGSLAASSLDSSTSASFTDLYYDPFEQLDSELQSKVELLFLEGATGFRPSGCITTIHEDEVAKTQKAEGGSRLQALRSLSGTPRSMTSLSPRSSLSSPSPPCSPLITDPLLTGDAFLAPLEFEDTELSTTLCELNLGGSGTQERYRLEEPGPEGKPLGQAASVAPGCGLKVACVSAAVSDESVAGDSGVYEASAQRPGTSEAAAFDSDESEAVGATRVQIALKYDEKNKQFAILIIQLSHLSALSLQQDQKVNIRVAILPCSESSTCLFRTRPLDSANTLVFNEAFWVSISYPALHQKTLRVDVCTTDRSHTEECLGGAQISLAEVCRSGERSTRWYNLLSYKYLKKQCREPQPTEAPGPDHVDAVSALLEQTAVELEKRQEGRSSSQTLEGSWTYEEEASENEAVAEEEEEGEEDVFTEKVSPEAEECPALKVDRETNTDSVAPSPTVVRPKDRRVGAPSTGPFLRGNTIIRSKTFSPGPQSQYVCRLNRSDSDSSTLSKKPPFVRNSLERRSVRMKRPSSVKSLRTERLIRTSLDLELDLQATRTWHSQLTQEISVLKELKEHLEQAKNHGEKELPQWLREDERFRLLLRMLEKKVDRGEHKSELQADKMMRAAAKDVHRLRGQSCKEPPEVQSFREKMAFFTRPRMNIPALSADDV
Sequence of mGFP-KIBRA ΔCCL (Q5SXA9 whole entry, stated change not applied): as the sequence (Q5SXA9 whole entry) above
Sequence of mGFP-KIBRA ΔCt (Q5SXA9 whole entry, stated change not applied): as the sequence (Q5SXA9 whole entry) above
Sequence of mGFP-KIBRA ΔαBR (Q5SXA9 whole entry, stated change not applied): as the sequence (Q5SXA9 whole entry) above
Sequence of mGFP-KIBRA ΔC2 (Q5SXA9 whole entry, stated change not applied): as the sequence (Q5SXA9 whole entry) above
Sequence of Myc-GluA2 (P19491 22-883): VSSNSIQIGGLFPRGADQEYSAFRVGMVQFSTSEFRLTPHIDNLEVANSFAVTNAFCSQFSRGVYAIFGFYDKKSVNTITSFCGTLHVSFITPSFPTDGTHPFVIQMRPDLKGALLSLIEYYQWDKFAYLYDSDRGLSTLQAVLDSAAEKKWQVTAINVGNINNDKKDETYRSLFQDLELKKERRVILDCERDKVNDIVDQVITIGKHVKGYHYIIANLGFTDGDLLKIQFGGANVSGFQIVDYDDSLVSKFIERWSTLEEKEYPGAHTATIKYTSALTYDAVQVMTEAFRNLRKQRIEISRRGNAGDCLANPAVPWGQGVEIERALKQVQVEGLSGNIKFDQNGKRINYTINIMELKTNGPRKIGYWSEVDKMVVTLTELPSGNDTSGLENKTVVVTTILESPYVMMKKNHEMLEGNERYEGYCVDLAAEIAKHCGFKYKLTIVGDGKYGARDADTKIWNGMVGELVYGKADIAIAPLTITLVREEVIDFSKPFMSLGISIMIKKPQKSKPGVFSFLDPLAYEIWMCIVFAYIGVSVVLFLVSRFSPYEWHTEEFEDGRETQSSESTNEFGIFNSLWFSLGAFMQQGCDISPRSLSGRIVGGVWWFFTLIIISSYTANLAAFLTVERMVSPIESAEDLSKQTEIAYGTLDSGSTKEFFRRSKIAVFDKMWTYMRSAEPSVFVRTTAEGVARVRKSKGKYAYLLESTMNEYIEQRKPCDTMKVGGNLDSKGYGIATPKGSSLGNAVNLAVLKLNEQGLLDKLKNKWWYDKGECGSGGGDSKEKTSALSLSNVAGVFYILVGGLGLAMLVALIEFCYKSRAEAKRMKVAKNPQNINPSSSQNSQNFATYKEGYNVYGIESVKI
Sequence of mGFP-PICK1 KD-AA (Q62083 whole entry): as the sequence (Q62083 whole entry) above
Sequence of mGFP-PICK1 BAR (domain or fragment) (Q62083 whole entry, the tested form may be a part): as the sequence (Q62083 whole entry) above
Sequence of mCherry-KIBRA WT (Q5SXA9 whole entry): as the sequence (Q5SXA9 whole entry) above
Sequence of mGFP-KIBRA ΔWW (Q5SXA9 whole entry, stated change not applied): as the sequence (Q5SXA9 whole entry) above

On to “Myc-GluA2 (from UniProt P19491 22-883) (receptor)”, for which the GluA2 signal with PICK1 5K-E normalized to +PICK1 WT with mGFP-PICK1 5K-E (mouse) turned out to be 0.27.

Substance “mGFP-PICK1 KD-AA (from UniProt Q62083 1-416) (natural protein)” showed a PICK1 pull down normalized to input and same-gel WT PICK1 in the assay with mCherry-KIBRA WT (mouse) of 0.8. On to “mGFP-KIBRA ΔCCL (from UniProt Q5SXA9 1-1104) (natural protein)”, for which, in the assay with mCherry-PICK1 WT (mouse), the co-precipitated KIBRA normalized to WT sample from the same blot was found to be 1.53. The co-precipitated mGFP-KIBRA normalized to WT sample from the same blot with mGFP-KIBRA ΔCCL (mouse) was 1.6. In the assay with mCherry-PICK1 WT (mouse), “mGFP-KIBRA ΔC2 (from UniProt Q5SXA9 1-1104) (natural protein)” showed a co-precipitated KIBRA normalized to WT sample from the same blot of 1.08. In the assay with mGFP-KIBRA ΔC2 (mouse), this substance returned a co-precipitated mGFP-KIBRA normalized to WT sample from the same blot of 1.36. “mGFP-KIBRA ΔWW (from UniProt Q5SXA9 1-1104) (natural protein)” displayed a co-precipitated KIBRA normalized to WT sample from the same blot in the assay with mCherry-PICK1 WT (mouse) of 1.87. With mGFP-PICK1 BAR (domain or fragment), the PICK1 pull down normalized to input and same-gel WT PICK1 in the assay with mCherry-KIBRA WT (mouse) is 2.06. “mGFP-KIBRA ΔCt (from UniProt Q5SXA9 1-1104) (natural protein)” displayed a co-precipitated KIBRA normalized to WT sample from the same blot with mCherry-PICK1 WT (mouse) of 5.79. For the same substance, in the assay with mGFP-KIBRA ΔCt (mouse), the co-precipitated mGFP-KIBRA normalized to WT sample from the same blot turned out to be 1. In turn, “mGFP-KIBRA ΔαBR (from UniProt Q5SXA9 1-1104) (natural protein)” showed a co-precipitated KIBRA normalized to WT sample from the same blot with mCherry-PICK1 WT (mouse) of 1.84. In the assay with mGFP-KIBRA ΔαBR (mouse), this substance showed a co-precipitated mGFP-KIBRA normalized to WT sample from the same blot of 1.55. The substance “mCherry-KIBRA WT (from UniProt Q5SXA9 1-1104) (natural protein)” showed a KIBRA signal with PICK1 5K-E normalized to +PICK1 WT with mGFP-PICK1 5K-E (mouse) of 0.63.
